The results in this text go back to article PMC8595303, “Dramatic activation of an antibody by a single amino acid change in framework” (Scientific Reports, 2021).

As a reminder, the Kd is a measure of binding affinity in units of concentration. A lower Kd goes with a tighter complex.

Residue numbers refer to the chain shown, from its start. Numbers in names are those of the source. Bounds are passed on as bounds.

First the molecules themselves.
B1: rabbit monoclonal antibody 4A11 (antibody, V domains shown)
VH: QSLEESGGRLVTPGTPLTLTCTVSGFSLSSYTVNWVRQAPGKGLEWIGYISYGGSAYYASWANGRFTISKTSATVDLKITSPTTEDTATYFCARHMQVGGAPTGSMAAFDPWGPGTLVTVSS
VL: AAVLTQTPSPVSAAVGGTVSISCQSSQSVYNNNYLSWFQQKPGQPPKLLIYGASTLTSGVPSRFKGSGSGTQFTLTISDVQCDDAATYYCAGGYSGSSDKYAFGGGTEVVVK
notes: VH of rbt4A11; VL of rbt4A11; Parental rabbit antibody; also called rbt4A11
B2: h4A11.v7.1 (antibody, V domains shown)
VH: EQQLQESGPGLVKPSETLRLTCTVTGFSLSSYTVNWVRQPAGKGLEWIGYISYGGSAYYASWANGRFTISKDSSKNQVYLKLSSVTAADTAVYFCARHMQVGGAPTGSMAAFDPWGPGTLVTVSS
VL: EAVLTQSPGTLSLSPGERATLSCQSSQSVYNNNYLSWFQQKPGQPPRLLIYGASTLTSGVPDRFSGSGSGTDFTLTISRLEPEDFAVYYCAGGYSGSSDKYAFGGGTKVEIK
notes: as the VH of m12 (h4A11.v7); numbers count on: Kabat numbering of the heavy chain; as the VL of m12 (h4A11.v7); human IgG1; also called v7.1_S19R, S79Y; source: Expi293F, transient, purified (Protein A, SEC)
B3: h4A11.v7.2 (antibody, V domains shown)
VH: B2 VH with Y79W
VL: B2 VL
notes: as the VH of m12 (h4A11.v7); numbers count on: Kabat numbering of the heavy chain; as the VL of m12 (h4A11.v7); human IgG1; also called v7.2_S19R, S79W; source: Expi293F, transient, purified (Protein A, SEC)
B4: h4A11.v7.4 (antibody, V domains shown)
VH: B2 VH with K81R
VL: B2 VL
notes: as the VH of m12 (h4A11.v7); numbers count on: Kabat numbering of the heavy chain; as the VL of m12 (h4A11.v7); human IgG1; also called v7.4_S19R, S79Y, K81R; source: Expi293F, transient, purified (Protein A, SEC)
B5: h4A11.v7.3 (antibody, V domains shown)
VH: B2 VH with K81Q
VL: B2 VL
notes: as the VH of m12 (h4A11.v7); numbers count on: Kabat numbering of the heavy chain; as the VL of m12 (h4A11.v7); human IgG1; also called v7.3_S19R, S79Y, K81Q; source: Expi293F, transient, purified (Protein A, SEC)
B6: h4A11.v7.5 (antibody, V domains shown)
VH: B2 VH with Y79W, K81Q
VL: B2 VL
notes: as the VH of m12 (h4A11.v7); numbers count on: Kabat numbering of the heavy chain; as the VL of m12 (h4A11.v7); human IgG1; also called v7.5_S19R, S79W, K81Q; source: Expi293F, transient, purified (Protein A, SEC)
B7: h4A11.v7.6 (antibody, V domains shown)
VH: B2 VH with Y79W, K81R
VL: B2 VL
notes: as the VH of m12 (h4A11.v7); numbers count on: Kabat numbering of the heavy chain; as the VL of m12 (h4A11.v7); human IgG1; also called v7.6_S19R, S79W, K81R; source: Expi293F, transient, purified (Protein A, SEC)
B8: h4A11.v2.1 (antibody, V domains shown)
VH: EQQLVESGGGLVQPGGSLSLSCAVSGFSLSSYTVNWVRQAPGKGLEWIGYISYGGSAYYASWANGRFTISKDSAKNSVYLQMNSLRAEDTAVYFCARHMQVGGAPTGSMAAFDPWGPGTLVTVSS
VL: DAQLTQSPSSLSASVGDRVTITCQSSQSVYNNNYLSWFQQKPGKPPKLLIYGASTLTSGVPSRFSGSGSGTDFTLTISSLQPEDFATYYCAGGYSGSSDKYAFGGGTKVEIK
notes: as the VH of m7 (h4A11.v2) with the stated change; numbers count on: Kabat numbering of the heavy chain; as the VL of m7 (h4A11.v2); human IgG1; also called v2.1_R19S; source: Expi293F, transient, purified (Protein A, SEC)
B9: h4A11.v2.3 (antibody, V domains shown)
VH: B8 VH with S19R, Q81A
VL: B8 VL
notes: as the VH of m7 (h4A11.v2) with the stated change; numbers count on: Kabat numbering of the heavy chain; as the VL of m7 (h4A11.v2); human IgG1; also called v2.3_Q81A; source: Expi293F, transient, purified (Protein A, SEC)
B10: h4A11.v2.6 (antibody, V domains shown)
VH: B8 VH with Y79S, Q81S
VL: B8 VL
notes: as the VH of m7 (h4A11.v2) with the stated changes; numbers count on: Kabat numbering of the heavy chain; as the VL of m7 (h4A11.v2); human IgG1; also called v2.6_ R19S, Y79S, Q81S; source: Expi293F, transient, purified (Protein A, SEC)
B11: h4A11.v2.4 (antibody, V domains shown)
VH: B8 VH with Y79S
VL: B8 VL
notes: as the VH of m7 (h4A11.v2) with the stated changes; numbers count on: Kabat numbering of the heavy chain; as the VL of m7 (h4A11.v2); human IgG1; also called v2.4_ R19S, Y79S; source: Expi293F, transient, purified (Protein A, SEC)
B12: h4A11.v2.2 (antibody, V domains shown)
VH: B8 VH with S19R, Q81N
VL: B8 VL
notes: as the VH of m7 (h4A11.v2) with the stated change; numbers count on: Kabat numbering of the heavy chain; as the VL of m7 (h4A11.v2); human IgG1; also called v2.2_Q81N; source: Expi293F, transient, purified (Protein A, SEC)
B13: h4A11.v2.5 (antibody, V domains shown)
VH: B8 VH with Q81S
VL: B8 VL
notes: as the VH of m7 (h4A11.v2) with the stated changes; numbers count on: Kabat numbering of the heavy chain; as the VL of m7 (h4A11.v2); human IgG1; also called v2.5_ R19S, Q81S; source: Expi293F, transient, purified (Protein A, SEC)

T2 sequence (P61812 303-414): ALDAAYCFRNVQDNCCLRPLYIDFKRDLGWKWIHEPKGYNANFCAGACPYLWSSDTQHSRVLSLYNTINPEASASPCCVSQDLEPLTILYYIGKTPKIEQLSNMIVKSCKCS
T3 sequence (P10600 301-412): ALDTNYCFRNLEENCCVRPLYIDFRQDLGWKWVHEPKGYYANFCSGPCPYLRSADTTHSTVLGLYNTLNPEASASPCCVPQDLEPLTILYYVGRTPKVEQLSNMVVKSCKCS

The target in one assay is T1, human mature TGFβ1 (Homo sapiens, UniProt P01137). The experiment in a line: cell-based or functional assay.
T1 sequence (P01137 279-390): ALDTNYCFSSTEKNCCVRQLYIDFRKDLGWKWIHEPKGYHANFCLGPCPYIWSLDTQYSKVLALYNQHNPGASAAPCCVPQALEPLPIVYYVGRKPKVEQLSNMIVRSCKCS
Details: not given
Consider B1, for which the “TGFβ inhibition by HEK-Blue cells (IC50: nM), TGFb1” value is > 667 nM.

Another assay has as its target T2, human mature TGFβ2 (PeproTech) (Homo sapiens, UniProt P61812). The experiment in a line: cell-based or functional assay.
Details: not given
Turning to B1, the “TGFβ inhibition by HEK-Blue cells (IC50: nM), TGFb2; Blocking: Complete” value (from here on “TGFβ inhibition … TGFb2; Blocking: Complete”) is 0.9 nM.

The next assay addresses T3, human mature TGFβ3 (Homo sapiens, UniProt P10600). The experiment in a line: cell-based or functional assay.
Details: not given
B1: the “TGFβ inhibition by HEK-Blue cells (IC50: nM), TGFb3; Blocking: Complete” value (shortened to “TGFβ inhibition … TGFb3; Blocking: Complete”) stood at 0.1 nM.

The target of a further assay is T2, human mature TGFβ2 (PeproTech). The experiment in a line: cell-based or functional assay.
Details: not given
This is another data set of the same source.
B2: the “TGFβ inhibition by HEK-Blue cells (IC50: nM), TGFb2; Blocking: Incomplete” value was > 667 nM.
The same measure, in the same setting: with B3 the figure was > 667 nM.
Still for that read-out and setting: with B4 the figure was > 667 nM.
As for B5, the “TGFβ inhibition by HEK-Blue cells (IC50: nM), TGFb2; Blocking: Incomplete” value is > 667 nM.
Same read-out and setting: with B6 the figure was > 667 nM; with B7, > 667 nM.
As to B8, the “TGFβ inhibition … TGFb2; Blocking: Complete” value came out at 0.7 nM.
Consider B9, for which the “TGFβ inhibition … TGFb2; Blocking: Complete” value amounted to 1.7 nM.
Same read-out and setting: with B10 the figure was 1.7 nM; with B11, 2.2 nM.
Take B12: the “TGFβ inhibition … TGFb2; Blocking: Complete” value came out at 2.2 nM.
Still for that read-out and setting: with B13 the figure was 0.7 nM.

A further assay deals with T3, human mature TGFβ3. As to the kind of experiment: cell-based or functional assay.
Details: not given
The source holds these as a separate data set.
In the case of B2, the “TGFβ inhibition by HEK-Blue cells (IC50: nM), TGFb3; Blocking: Incomplete” value is > 667 nM.
Still for that read-out and setting: with B3 the figure was > 667 nM; with B4, > 667 nM; with B5, > 667 nM.
Turning to B6, the “TGFβ inhibition by HEK-Blue cells (IC50: nM), TGFb3; Blocking: Incomplete” value was > 667 nM.
The same measure, in the same setting: with B7 the figure was > 667 nM.
On to B8, for which the “TGFβ inhibition … TGFb3; Blocking: Complete” value was 0.1 nM.
On the same count and under the same terms, with B9 the figure was 0.7 nM.
Still for that read-out and setting: with B10 the figure was 0.3 nM.
B11: the “TGFβ inhibition … TGFb3; Blocking: Complete” value amounted to 0.2 nM.
With B12, the “TGFβ inhibition … TGFb3; Blocking: Complete” value was 0.4 nM.
Take B13: the “TGFβ inhibition … TGFb3; Blocking: Complete” value came out at 0.1 nM.

A further assay deals with T1, human mature TGFβ1. As to the kind of experiment: SPR; Biacore T200; antibody captured on a Protein A sensor chip (about 90 RU); mature TGFβ isoform injected, five-fold dilutions 0.008 nM to 5 nM; HBS-EP pH 7.4, 150 mM NaCl; 37 °C; 100 μl/min; 3 min association, 60 min dissociation; one-to-one Langmuir model, global fit. The following applies: both partners purified. (In general: SPR reads the build-up and loss of mass on a sensor chip optically.)
As to B1, the Kd is > 5 nM and the binding result is reported as “no binding (tested: 5 nM)”.

The target in another assay is T2, human mature TGFβ2 (PeproTech). Described as above. To be noted: both partners purified.
For B1, binding was put at a Kd of 0.0016 nM. In other words, the picomolar range.

A further assay concerns the target T3, human mature TGFβ3. The assay is described as above. The following applies: both partners purified.
B1 gave a Kd of 0.0012 nM.

For another assay, the target named is T1, human mature TGFβ1. Described as above. The following applies: both partners purified. The source holds these as a separate data set.
Consider B2, for which the Kd was > 5 nM and the binding result is “no binding (tested: 5 nM)”.
Turning to B3, the Kd is > 5 nM and the binding result is recorded as “no binding (tested: 5 nM)”.
The corresponding values for B4 are > 5 nM and “no binding (tested: 5 nM)”.
B5: the Kd was > 5 nM and the binding result was “no binding (tested: 5 nM)”.
Taken in the same sequence, the figures for B6 were > 5 nM and “no binding (tested: 5 nM)”.
As for B7, the Kd is > 5 nM and the binding result is on record as “no binding (tested: 5 nM)”.
With B8, the Kd is > 5 nM and the binding result is listed as “no binding (tested: 5 nM)”.
Take B9: the Kd was > 5 nM and the binding result was “no binding (tested: 5 nM)”.
For B10, the Kd is > 5 nM and the binding result was “no binding (tested: 5 nM)”.
The corresponding values for B11 are > 5 nM and “no binding (tested: 5 nM)”.
As for B12, the Kd was > 5 nM and the binding result is “no binding (tested: 5 nM)”.
Taken in the same sequence, the figures for B13 were > 5 nM and “no binding (tested: 5 nM)”.

The next assay deals with T2, human mature TGFβ2 (PeproTech). The description is as above. To be noted: both partners purified. The source holds these as a separate data set.
For B2, the Kd stood at 0.0107 nM.
Same read-out and setting: with B3 the figure was 0.0096 nM; with B4, 0.0112 nM; with B5, 0.0057 nM.
The same measure, in the same setting: with B6 the figure was 0.0056 nM; with B7, 0.0097 nM; with B8, 0.0022 nM.
Take B9: the affinity, expressed as Kd, was 0.0034 nM.
The same measure, in the same setting: with B10 the figure was 0.0019 nM.
On to B11, for which the dissociation constant (Kd) amounted to 0.0014 nM. The Kd values of the last two molecules are within 1.5-fold of each other.
Same read-out and setting: with B12 the figure was 0.0045 nM.
B13 had a Kd of 0.0017 nM. This Kd is about 2.6-fold lower than that of the molecule before.

For the next assay, the target named is T3, human mature TGFβ3. Described as above. The following applies: both partners purified. The source holds these as a separate data set.
In the case of B2, binding was put at a Kd of 0.0405 nM.
B3 had a Kd of 0.0228 nM.
The molecule B4 showed a Kd of 0.0188 nM.
For B5, binding was put at a Kd of 0.008 nM.
The same measure, in the same setting: with B6 the figure was 0.0072 nM; with B7, 0.0156 nM.
With B8, the Kd came to 0.0006 nM.
Still for that read-out and setting: with B9 the figure was 0.0055 nM.
On the same count and under the same terms, with B10 the figure was 0.0005 nM; with B11, 0.0006 nM; with B12, 0.006 nM.
Regarding B13, binding was characterised by a dissociation constant (Kd) of 0.0006 nM. Compared with the last molecule, the Kd is about 10-fold lower.
